Target: CDK2 protein (purchased from Sino Biological Inc.) (UniProt P24941 1-298)
Assay: SPR; CD147ICD immobilised on a CM5 chip; CDK2 injected at 30 µL/min; BSA signal subtracted
Details: both partners purified

Kd: 16.7 µM
B1: intracellular portion of CD147 (ICD, 230-269) (domain or fragment)
chain: EKRRKPEDVLDDDDAGSAPLKSSGQHQNDKGKNVRQRNSS
notes: CD147 (basigin), human, residues 230-269, intracellular portion; also called CD147’s intracellular domain; CD147’s intracellular segment; source: E. coli OrigamiB (DE3), purified (expressed and purified in the same way as for CD147)

— paper PMC8632965, “CD98-induced CD147 signaling stabilizes the Foxp3 protein to maintain tissue homeostasis” (Cellular and Molecular Immunology, 2021)
